According to a protein production outcome set (Wang et al. 2014):

Assay: label from the status in PepcDB records
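Further: failed if final PepcDB status was selected cloned or expressed and not failed if soluble or beyond.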

| Sequence | protein production |
| --- | --- |
| MKKWRFLGIDDSFDDRKCCVVGCVTCGGYVEGFLYTEIDIDGLDATDKLISMVRRSKFREQIKCIFLPGITLGGFNLVDIQRVYRETKIPVVVVMRRKPDMEEFDSAMRNLENYELRRKIVEVAGEIHRIGDIYIQTAGLTPSEAEKLVKASLIKGNMPEPVRISHLVASAIIHGESRGKA | not failed |
| MRNKKLIPFEVIEKAVAGEPEAIELVLQHYSPRIKYLSKYRGYINDDIQDRLKTQLIKAILQFRFDR | failed |
| MIVEKVLIVDPIDGEFTGDVEIEEGKIVKVEKRECIPRGVLMPGFVDPHIHGVVGADTMNCDFSEMEEFLYSQGVTTFLATTVSTSLEKMKEILRKARDYILENPSTSLLGVHLEGPYISKEKKGAHSEKHIRPPSERELSEIDSPAKMLTFAPEIESSELLLRLVKRDIVLSAGHSIATFEEFMKFYKEGVKRITHFPNGLKPLHHREIGITGAGLLLDDVKLELICDGVHLSREMVKLVYKVKKANGIVLVTDSISAAGLKDGTTTLGDLVVKVKDGVPRLEDGTLAGSTLFFSQAVKNFRKFTGCSITELAKVSSYNSCVELGLDDRGRIAEGTRADLVLLDEDLNVVMTIKEGEVVFRSR | not failed |
| MAKRTPSIDTKNLTAVQLMELDACVRCGECVKWCPTYAASGGKPGLAPRDKILRWRQYMNKSYGLKAKLFGPQEVSPSELEEFKDDVHGCTTCGVCATVCEAGINTVEIWEAIRTNLVKKGIGPYGKQSAFPKLVGQYHNPYMKDQKDRLAWVPPDVKIEDKADIVYFTGCTAGYNQLALAFATSRVLNKLGIKFAMLGEEEWCCGSALIRTGQVHVDDVARELARHNVEALQKKGAKKVLFACAGCFRAAKIDWPRLLGKELPFEVIHITQFLADLIQADKIKWEKPINKTITYHDPCHLGRHVGVFNAPRYVLSHIPGVKFVEMDRSKEFQRCCGAGGGVKAGMPDLAVAMGESRVKDALETNADILSSACPFCKRNLSDGRDALKSDIVVEDIIELVAEALGLSTS | failed |
| CSACGETVMPGSRKLEYGGQTWHEHCFLCSGCEQPLGSRSFVPDKGAHYCVPCYENKFA | not failed |
| MRKRARIIYNPTSGKELFKRELPDALIKLEKAGYETSAYATEKIGDATLEAERAMHENYDVLIAAGGDGTLNEVVNGIAEKPNRPKLGVIPMGTVNDFGRALHIPNDIMGALDVIIEGHSTKVDIGKMNNRY | failed |
| MLGKDYMLAIILVNCDDDLWGDHSLEVEAGLPPGWRKIHDAAGTYYWHVPSGSTQWQRPTWELGDAEDPGTGTEGIWGLRPPKGRSFSSLESSLDRSNSLSWYGGESYIQSMEPGAKCFAVRSLGWVEVPEEDLAPGKSSIAVNNCIQQLAQTRSRSQPPDGAWGEGQNMLMILKKDAMSLVNPLDHSLIHCQPLVHIRVWGVGSSKGRDRDFAFVASDKDSCMLKCHVFCCDVPAKAIASALHGLCAQILSERVEVSGDASCCSPDPISPEDLPRQVELLDAVSQAAQKYEALYMGTLPVTKAMGMDVLNEAIGTLTARGDRNAWVPTMLSVSDSLMTAHPIQAEASTEEEPLWQCPVRLVTFIGVGRDPHTFGLIADLGRQSFQCAAFWCQPHAGGLSEAVQAACMVQYQKCLVASAARGKAWGAQARARLRLKRTSSMDSPGGPLPLPLLKGGVGGAGATPRKRGVFSFLDAFRLKPSLLHMP | not failed |
| MPKKGSDPVWCVVMFDLPVKTKTQRKQATAFRQNLLDLGFCMAQLSVYVQYLPLAAKLSNLVKLIKEKLPPGGDVRILSVSDIQWSKMIRFSSSAEVSGEEKPDQLAIFLEHHHHHH | not failed |
| MVLLTMTKRLFKGLLAVSLAVSLHGGEVKEKKPVKPVKEDPQELAAKRVEAFSRFSNVVSEIEKKYVDKISISEIMTKAIEGLLSNLDAHSAYLNEKKFKEFQAQTEGEFGGLGITVGMRDGVLTVIAPLEGTPAYKAGVKSGDNILKINNESTLSMSIDDAINLMRGKPKTPIQITVVRKNEPKPLVFNIIRDIIKLPSVYVKKIKETPYLYVRVSGFDKNVTKSVLEGLKANPKAKGIVLDLRGNPGGLLNQAVGLSNLFIKEGVLVSQKGKNKEENLEYKANGRAPYTNLPIAVLVNGGSASASEIVAGALQDHKRAVIIGEKTFGKGSVQMLLPVNKDEAIKITTARYYLPSGRTIQAKGITPDIVIYPGKVPENENKFSLKEADLKHHLEQELKKIDDKTPNSKEADKDKKNEEEKEITPKMINDDIQLKTAIDSLKTWSIVDEKMDEKAPKKK | failed |
